This note sets out measurements from publication PMC6821881, “Development of a Potent and Protective Germline-Like Antibody Lineage Against Zika Virus in a Convalescent Human” (Frontiers in Immunology, 2019).

The target of assay [1] is T1, ZIKV E DIII protein (residues 301-403) (Zika virus, isolate GZ01 (KU820898)).
T1 construct: source: E. coli BL21 (RIL), pET28a, IPTG-induced; inclusion bodies solubilized and re-folded
Briefly: ELISA; E protein or E DIII protein captured separately onto ELISA plates overnight at 4°C; each mAb (full-length IgG) serially diluted and applied; detected with anti-human IgG-HRP and TMB; EC50 by dose-response stimulation model. The following applies: both partners purified. For orientation: ELISA stands for enzyme-linked immunosorbent assay.

The target of the next assay is T2, ZIKV E protein (GZ01) (Zika virus, isolate GZ01 (KU820898)).
T2 construct: also called full-length E; surface envelope glycoprotein (E); source: E. coli BL21 (RIL), pET28a, IPTG-induced; inclusion bodies solubilized and re-folded
The description is as above. Particulars: both partners purified.

B1: 2L-1 (S31N+A91S) (antibody, V domains shown)
VH: EVQLVQSGAEVKKPGASVKVSCKASGYTFTSGHTFPSYDINWVRQATGQGLEWMGWMNPNRGNTGYAQKFQGRVTMTRNTSINTAYMELSSLRSEDTAVYYCARVRSGTNYGSYYYYYYGMDVWGQGTTVTVSS
VL: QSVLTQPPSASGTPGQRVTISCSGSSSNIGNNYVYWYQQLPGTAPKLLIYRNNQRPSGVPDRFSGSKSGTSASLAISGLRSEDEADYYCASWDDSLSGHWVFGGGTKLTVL
notes: also called double mutation (S31N+A91S) into 2L-1; source: HEK 293T, transiently co-transfected, purified from supernatant (protein A agarose)
As for B1, the binding result (in assay [1]; with ZIKV E protein (GZ01)) was “binds” each time.

B2: 2H-6 (antibody, V domains shown)
VH: EVQLVQSGAEVKKPGASVKVSCKASGYTFTSYDVNWVRQATGQGLEWMGWLNPNSGNTGYAEKFQGRVTMTRNTSISTAYMELSSLRSEDTAVYYCARVSSGSYYGSYYYYYYGMDVWGQGTTVTVSS
VL: SYELTQPPSASGTPGQRVTISCSGSSSNIGNNYVHWYQQLPGSAPKLLIYRNNQRPSGVPDRFSGSKSGTSGSLAISGLRSEDEADYYCASWDDSLSGHWVFGGGTKVTVL
notes: also called ZK2B10 heavy chain somatic variant 2H-6; source: HEK 293T, transiently co-transfected, purified from supernatant (protein A agarose)
With B2, the binding result (in assay [1]; in the assay with ZIKV E protein (GZ01)) was “binds” throughout.

B3: 2H-4 (antibody, V domains shown)
VH: QVQLVQSGREVKKPGASVKVSCKGSGYTFTSYDINWVRQAPGQGLEWMGWMNPNSGNTGYAQKFQGRVTMTRNTSISTAYMELSSLRSGDTAVYYCARVSSGSYYGSYYYYYYGMDVWGQGTTVTVSS
VL: SYELTQPPSASGTPGQRVTISCSGSSSNIGNNYVHWYQQLPGSAPKLLIYRNNQRPSGVPDRFSGSKSGTSGSLAISGLRSEDEADYYCASWDDSLSGHWVFGGGTKVTVL
notes: also called ZK2B10 heavy chain somatic variant 2H-4; source: HEK 293T, transiently co-transfected, purified from supernatant (protein A agarose)
Take B3: the binding result (in assay [1]; with ZIKV E protein (GZ01)) was “binds” throughout.

B4: 2H-15 (antibody, V domains shown)
VH: EVQLVQSGAEVKKPGASVKVSCKASGYTFTSYDVNWVRQATGQGLEWMGWMNPNSGNTGYAQKFQGRVTMTRNTSISTAYMELSSLRSEDTAVYYCARVSSGSYYGSYYYYYYGMDVWGQGTTVTVSS
VL: SYELTQPPSASGTPGQRVTISCSGSSSNIGNNYVHWYQQLPGSAPKLLIYRNNQRPSGVPDRFSGSKSGTSGSLAISGLRSEDEADYYCASWDDSLSGHWVFGGGTKVTVL
notes: also called ZK2B10 heavy chain somatic variant 2H-15; source: HEK 293T, transiently co-transfected, purified from supernatant (protein A agarose)
As to B4, the binding result (in assay [1]; with ZIKV E protein (GZ01)) was “binds” throughout.

B5: 2H-9 (antibody, V domains shown)
VH: EVQLVQSGGKVVELGASVKVSCKASGYTFTTYDINWVRQATGQGLEWMGWMNPNSGNTGYAQKFQGRVTMTRNTSISTAYMELSSLRSEDTAVYYCARVSSGSYYGSYYYYYYGMDVWGQGTTVTVSS
VL: SYELTQPPSASGTPGQRVTISCSGSSSNIGNNYVHWYQQLPGSAPKLLIYRNNQRPSGVPDRFSGSKSGTSGSLAISGLRSEDEADYYCASWDDSLSGHWVFGGGTKVTVL
notes: also called ZK2B10 heavy chain somatic variant 2H-9; source: HEK 293T, transiently co-transfected, purified from supernatant (protein A agarose)
In the case of B5, the binding result (in assay [1]; in the assay with ZIKV E protein (GZ01)) was “binds” each time.

B6: 2H-16 (antibody, V domains shown)
VH: QVQLVQSGAEVKKPGASVKVSCKASGYTFTSYDINWVRQATGQGLEWMGWMNPNSGNTGCAQKFQGRVTMTRNTSISTAYMELSSLRSEDTAVYYCARVSSGSYYGSYYYYYYGMDVWGQGTTVTVSS
VL: SYELTQPPSASGTPGQRVTISCSGSSSNIGNNYVHWYQQLPGSAPKLLIYRNNQRPSGVPDRFSGSKSGTSGSLAISGLRSEDEADYYCASWDDSLSGHWVFGGGTKVTVL
notes: also called ZK2B10 heavy chain somatic variant 2H-16; source: HEK 293T, transiently co-transfected, purified from supernatant (protein A agarose)
As for B6, the binding result (in assay [1]; in the assay with ZIKV E protein (GZ01)) was “binds” each time.

B7: 2H-5 (antibody, V domains shown)
VH: QVQLVQSGAEVKKPGASVNVSCKASGYTFTMYDINWVRQTTGQGLEWMGWMNPNSGNTGYAQKFQGRVTMTRNTSISTAYMELSSLRSEDTAVYYCARVSSGSYYGSYYYYYYGMDVWGQGTTVTVSS
VL: SYELTQPPSASGTPGQRVTISCSGSSSNIGNNYVHWYQQLPGSAPKLLIYRNNQRPSGVPDRFSGSKSGTSGSLAISGLRSEDEADYYCASWDDSLSGHWVFGGGTKVTVL
notes: also called ZK2B10 heavy chain somatic variant 2H-5; source: HEK 293T, transiently co-transfected, purified from supernatant (protein A agarose)
For the molecule B7, the binding result (in assay [1]; with ZIKV E protein (GZ01)) was “binds” each time.

B8: ZK2B10 (antibody, V domains shown)
VH: EVQLVQSGAEVKKPGASVKVSCKASGYTFTSGHTFPSYDINWVRQATGQGLEWMGWMNPNRGNTGYAQKFQGRVTMTRNTSINTAYMELSSLRSEDTAVYYCARVRSGTNYGSYYYYYYGMDVWGQGTTVTVSS
VL: SYELTQPPSASGTPGQRVTISCSGSSSNIGNNYVHWYQQLPGSAPKLLIYRNNQRPSGVPDRFSGSKSGTSGSLAISGLRSEDEADYYCASWDDSLSGHWVFGGGTKVTVL
notes: also called WT ZK2B10; wild-type (WT) ZK2B10; source: HEK 293T, transiently co-transfected, purified from supernatant (protein A agarose)
Turning to B8, the binding result in assay [1] is given as “binds”.

B9: 2H-10 (antibody, V domains shown)
VH: QVQLVQSGVEVKKPGASVEVSCQASGITSTSYDINWVRQANGQGLEWMGWMNPNSGNTGYAQKFQGRVTMTRNTSISTAYMELSSLRSEDTAVYYCARVSSGSYYGSYYYYYYGMDVWGQGTTVTVSS
VL: SYELTQPPSASGTPGQRVTISCSGSSSNIGNNYVHWYQQLPGSAPKLLIYRNNQRPSGVPDRFSGSKSGTSGSLAISGLRSEDEADYYCASWDDSLSGHWVFGGGTKVTVL
notes: also called ZK2B10 heavy chain somatic variant 2H-10; source: HEK 293T, transiently co-transfected, purified from supernatant (protein A agarose)
With B9, the binding result (in assay [1]; with ZIKV E protein (GZ01)) was “binds” throughout.
